From patent publication US7541169B2, “Sulfotransferase sequence variants” (Mayo Foundation for Medical Education and Research, priority 2001, dated 2009)

Test system: SULT1C1
Test: SULT1C1 enzyme activity assay: sulfate conjugation of 4-nitrophenol with 35S-PAPS, COS-1 cytosol of recombinant allozymes
Format: biochemical, human
Conditions: for Km: apparent Km for PAPS, in the presence of 10 mM 4-NP, six PAPS concentrations 0.0625 μM to 2 μM; for % WT activity: recombinant allozyme in COS-1 cytosol, 10 mM 4-NP, 0.4 μM 35S-PAPS, pH 7.4, percentage of wild type SULT1C1 enzyme activity; for activity relative to the reference (wild type) SULT1C1: statement in words
Description: In some embodiments, activity of SULT1C1 polypeptides is altered relative to the reference SULT1C1. […] Other allozymes can have increased activity relative to the reference SULT1C1. Activity of SULT1C1 polypeptides can be assessed in vitro using a sulfate acceptor substrate such as 4-nitrophenol (4-NP, Sigma Chemical Co., St. Louis, Mo.) and a donor sulfate molecule such as PAPS. In general, recombinant SULT1C1 polypeptides can be incubated at 37° C. with 10 mM of sulfate acceptor substrate in a potassium phosphate buffer (5 mM, pH 7.4) and 0.4 μM labeled PAPS (e.g., ^35S-PAPS from New England Nuclear Life Science Products, Inc., Boston Mass.). Reactions can be stopped by precipitating PAPS and SULT1C1 polypeptide (e.g., with barium hydroxide, barium acetate, and zinc sulfate). After centrifugation of the reaction, radioactivity in the supernatant is assessed. SULT1C1 activity is expressed as nmoles of sulfate conjugated product formed per hour of incubation. See, Campbell, N. R. C. et al., Biochem. Pharmacol., 36:1435-1446 (1987).
Other biochemical properties of allozymes, such as apparent Km values, also can be altered relative to the reference SULT1C1. Apparent Km values can be calculated, for example, by using the method of Wilkinson with a computer program written by Cleland. Wilkinson, Biochem. J., 80:324-332 (1961); and Cleland, Nature, 198:463-365 (1963). As described herein, the apparent Km values for PAPS vary 7-fold among the allozymes tested (Asp60Ala, Arg73Gln, Phe193Leu, Asp200Val, Thr239Ala, and Ser255Ala).
COS-1 Cell Expression: Nine different SULT1C1 expression constructs were made using the p91023(B) expression vector. See, Wong et al., Science (1985) 228:810-815, for a description of the p91023(B) vector. Eight of the constructs were designed to express variant SULT1C1 polypeptides, while the remaining construct was designed to express a wild type SULT1C1. All SULT1C1 cDNA sequences used to create the expression constructs were created by site directed mutagenesis using the method described by Ho et al., Gene (1989) 77(l):51-9. Each SULT1C1 cDNA was amplified by PCR and subcloned into the EcoRI restriction site of the eukaryotic expression vector p91023(B). After subcloning, all inserts were sequenced to assure that no spurious nucleotide point mutations had been introduced during the PCR amplifications. […] As a control, a transfection was also performed with “empty” p91023(B), i.e., vector lacking an insert, to make it possible to correct for endogenous COS-1 cell SULT activity. The control plasmid pSV-β-galactosidase (Promega, Madison, Wis.) was cotransfected with each SULT1C1 construct to make it possible to correct for transfection efficiency. Two independent transfections, each consisting of three separate plates, were performed with each of the expression constructs. After 48 hours in culture, the transfected cells were harvested and high speed supernatant (HSS) cytosol preparations were prepared as described by Wood, T. C. et al., Biochem. Biophys. Res. Commun., 198:1119-1127 (1994). Aliquots of these cytosol preparations were stored at −80° C. prior to assay.
Enzyme Assays: β-galactosidase activity in each of the COS-1 HSS preparations was measured with the β-galactosidase Enzyme Assay System (Promega, Madison, Wis.). SULT1C1 enzyme activity was measured with an assay that involves sulfate conjugation of a sulfate acceptor substrate, 4-nitrophenol (4-NP), in the presence of [^35S]-3′-phosphoadenosine-5′-phosphosulfate (PAPS), the sulfate donor for the reaction. See, Campbell, N. R. C. et al., Biochem. Pharmacol., 36:1435-1446 (1987). The HSS preparations of recombinant SULT1C1 variant proteins described above were used for the activity studies without any further purification. The protein concentration of each recombinant protein preparation was determined by the dye-binding method of Bradford with bovine serum albumin (BSA) as a standard. […]

Row | Molecule | % WT activity [%] | activity relative to the reference (wild type) SULT1C1 | Km [µM]
1 | Asp200Val: SULT1C1 polypeptide having a valine at amino acid 200 in place of an aspartic acid (protein) MALTSDLGKQIKLKEVEGTLLQPATVDNWSQIQSFEAKPDDLLICTYPKAGTTWIQEIVDMIEQNGDVEKCQRAIIQHRHPFIEWARPPQPSGVEKAKAMPSPRILKTHLSTQLLPPSFWENNCKFLYVARNAKDCMVSYYHFQRMNHMLPDPGTWEEYFETFINGKVVWGSWFDHVKGWWEMKDRHQILFLFYEDIKRVPKHEIRKVMQFMGKKVDETVLDKIVQETSFEKMKENPMTNRSTVSKSILDQSISSFMRKGTVGDWKNHFTVAQNERFDEIYRRKMEGTSINFCMEL | 48.1 ± 4.2 | reduced activity | 1.2 ± 0.12
2 | Thr239Ala: SULT1C1 polypeptide having an alanine at amino acid 239 in place of a threonine (protein) MALTSDLGKQIKLKEVEGTLLQPATVDNWSQIQSFEAKPDDLLICTYPKAGTTWIQEIVDMIEQNGDVEKCQRAIIQHRHPFIEWARPPQPSGVEKAKAMPSPRILKTHLSTQLLPPSFWENNCKFLYVARNAKDCMVSYYHFQRMNHMLPDPGTWEEYFETFINGKVVWGSWFDHVKGWWEMKDRHQILFLFYEDIKRDPKHEIRKVMQFMGKKVDETVLDKIVQETSFEKMKENPMANRSTVSKSILDQSISSFMRKGTVGDWKNHFTVAQNERFDEIYRRKMEGTSINFCMEL | 52.6 ± 1.7 | reduced activity | 1.14 ± 0.11
3 | Ser111Phe: SULT1C1 polypeptide having a phenylalanine at amino acid 111 in place of a serine (protein) MALTSDLGKQIKLKEVEGTLLQPATVDNWSQIQSFEAKPDDLLICTYPKAGTTWIQEIVDMIEQNGDVEKCQRAIIQHRHPFIEWARPPQPSGVEKAKAMPSPRILKTHLFTQLLPPSFWENNCKFLYVARNAKDCMVSYYHFQRMNHMLPDPGTWEEYFETFINGKVVWGSWFDHVKGWWEMKDRHQILFLFYEDIKRDPKHEIRKVMQFMGKKVDETVLDKIVQETSFEKMKENPMTNRSTVSKSILDQSISSFMRKGTVGDWKNHFTVAQNERFDEIYRRKMEGTSINFCMEL | 0 | reduced activity | 
4 | wild type: reference human SULT1C1 polypeptide (SEQ ID NO:2, GenBank U66036), recombinantly expressed in COS-1 cells (protein, listed as Homo sapiens) MALTSDLGKQIKLKEVEGTLLQPATVDNWSQIQSFEAKPDDLLICTYPKAGTTWIQEIVDMIEQNGDVEKCQRAIIQHRHPFIEWARPPQPSGVEKAKAMPSPRILKTHLSTQLLPPSFWENNCKFLYVARNAKDCMVSYYHFQRMNHMLPDPGTWEEYFETFINGKVVWGSWFDHVKGWWEMKDRHQILFLFYEDIKRDPKHEIRKVMQFMGKKVDETVLDKIVQETSFEKMKENPMTNRSTVSKSILDQSISSFMRKGTVGDWKNHFTVAQNERFDEIYRRKMEGTSINFCMEL | 100 |  | 0.77 ± 0.04
5 | Ser255Ala: SULT1C1 polypeptide having an alanine at amino acid 255 in place of a serine (protein) MALTSDLGKQIKLKEVEGTLLQPATVDNWSQIQSFEAKPDDLLICTYPKAGTTWIQEIVDMIEQNGDVEKCQRAIIQHRHPFIEWARPPQPSGVEKAKAMPSPRILKTHLSTQLLPPSFWENNCKFLYVARNAKDCMVSYYHFQRMNHMLPDPGTWEEYFETFINGKVVWGSWFDHVKGWWEMKDRHQILFLFYEDIKRDPKHEIRKVMQFMGKKVDETVLDKIVQETSFEKMKENPMTNRSTVSKSILDQSISAFMRKGTVGDWKNHFTVAQNERFDEIYRRKMEGTSINFCMEL | 98.9 ± 5.9 | comparable to the reference SULT1C1 | 0.56 ± 0.06

Now from value to molecule, other results behind:

Row | % WT activity [%] | activity relative to the reference (wild type) SULT1C1 | Molecule | Km [µM]
6 | 13.9 ± 0.3 | reduced activity | Asp60Ala: SULT1C1 polypeptide having an alanine at amino acid residue 60 in place of aspartic acid (protein) MALTSDLGKQIKLKEVEGTLLQPATVDNWSQIQSFEAKPDDLLICTYPKAGTTWIQEIVAMIEQNGDVEKCQRAIIQHRHPFIEWARPPQPSGVEKAKAMPSPRILKTHLSTQLLPPSFWENNCKFLYVARNAKDCMVSYYHFQRMNHMLPDPGTWEEYFETFINGKVVWGSWFDHVKGWWEMKDRHQILFLFYEDIKRDPKHEIRKVMQFMGKKVDETVLDKIVQETSFEKMKENPMTNRSTVSKSILDQSISSFMRKGTVGDWKNHFTVAQNERFDEIYRRKMEGTSINFCMEL | 4 ± 0.47
7 | 49.3 ± 2.8 | reduced activity | Asp200Val/ Thr239Ala: double variant SULT1C1 polypeptide with a valine at amino acid 200 and an alanine at amino acid 239 (protein) MALTSDLGKQIKLKEVEGTLLQPATVDNWSQIQSFEAKPDDLLICTYPKAGTTWIQEIVDMIEQNGDVEKCQRAIIQHRHPFIEWARPPQPSGVEKAKAMPSPRILKTHLSTQLLPPSFWENNCKFLYVARNAKDCMVSYYHFQRMNHMLPDPGTWEEYFETFINGKVVWGSWFDHVKGWWEMKDRHQILFLFYEDIKRVPKHEIRKVMQFMGKKVDETVLDKIVQETSFEKMKENPMANRSTVSKSILDQSISSFMRKGTVGDWKNHFTVAQNERFDEIYRRKMEGTSINFCMEL | 1.82 ± 0.14
8 | 39.3 ± 1.4 | reduced activity | Phe193Leu: SULT1C1 polypeptide having a leucine residue at amino acid 193 in place of a phenylalanine (protein) MALTSDLGKQIKLKEVEGTLLQPATVDNWSQIQSFEAKPDDLLICTYPKAGTTWIQEIVDMIEQNGDVEKCQRAIIQHRHPFIEWARPPQPSGVEKAKAMPSPRILKTHLSTQLLPPSFWENNCKFLYVARNAKDCMVSYYHFQRMNHMLPDPGTWEEYFETFINGKVVWGSWFDHVKGWWEMKDRHQILFLLYEDIKRDPKHEIRKVMQFMGKKVDETVLDKIVQETSFEKMKENPMTNRSTVSKSILDQSISSFMRKGTVGDWKNHFTVAQNERFDEIYRRKMEGTSINFCMEL | 2.95 ± 0.27
9 | 14.5 ± 1.9 | reduced activity | Arg73Gln: SULT1C1 polypeptide having a glutamine at amino acid residue 73 in place of an arginine (protein) MALTSDLGKQIKLKEVEGTLLQPATVDNWSQIQSFEAKPDDLLICTYPKAGTTWIQEIVDMIEQNGDVEKCQQAIIQHRHPFIEWARPPQPSGVEKAKAMPSPRILKTHLSTQLLPPSFWENNCKFLYVARNAKDCMVSYYHFQRMNHMLPDPGTWEEYFETFINGKVVWGSWFDHVKGWWEMKDRHQILFLFYEDIKRDPKHEIRKVMQFMGKKVDETVLDKIVQETSFEKMKENPMTNRSTVSKSILDQSISSFMRKGTVGDWKNHFTVAQNERFDEIYRRKMEGTSINFCMEL | 0.57 ± 0.15
